Measured values reported in patent US20070178531A1 (BIOCHECK, published 2007).
Positions count from the first letter of the chain named.

B1: rabbit monoclonal anti-human Id3, clone #BCH-4/#3-3 (antibody, V domains shown)
VH: QSVEESGGRLVTPGTPLTLTCTVSGIDLSSYAMSWVRQAPGKGLEWIGVIFPSNNVYYASWAKGRFTISKTSTTVDLKITSPTTEDTATYFCASMGAFDSWGPGTLVTVSS
VL: QVLTQTPSPVSAAVGGTVTINCQASQSIYNDNDLAWFQQKPGQPPKLLIYDASTLTSGVPSRFKGSGSGTQFTLTISDLDCDDAATYYCAARYSGNIYGFGGGTEVVVK
notes: Rabbit IgG from a rabbit hybridoma; also called h Id3 MoAb 3-3
B2: rabbit monoclonal anti-mouse/human Id3, clone #BCH-4/#16-1 (antibody, V domains shown)
VH: QSVEESGGRLVTPGTPLTLTCTASGFSLSSYYIHWVRQAPGKALEWIGYISDGGTTYYASWAKGRFTISKTSSTTVDLKMTSLTTEDTATYFCARQGFNIWGPGTLVTVSL
VL: AVLTQTPSPVSAAVGGTVTISCQSSQSVYNNNWLSWFQQKSGQPPKLLIYETSKLESGVPSRFKGSGSGTQFTLTIIDVQCDDAATYYCLGGYWTTSDNNIFGGGTEVVVK
notes: Rabbit IgG from a rabbit hybridoma; also called m/h Id3 MoAb 16-1
B3: rabbit monoclonal anti-mouse/human Id3, clone #BCH-4/#17-3 (antibody, V domains shown)
VH: B2 VH with S30N, Y31V, A43G, G54D, T56A, Y57R, S60T, D77N
VL: B2 VL with T19S, Y29W, S41P, I77S, I101V
notes: Rabbit IgG from a rabbit hybridoma; also called m/h Id3 MoAb 17-3; BCH-3/#17-3
B4: rabbit monoclonal anti-mouse/human Id3, clone #BCH-4/#6-1 (antibody, V domains shown)
VH: B2 VH with S30N, Y31V, A43G, G54D, T56A, Y57R, S60T, D77N
VL: B2 VL with T19S, Y29W, S41P, I77S, I101V
notes: Rabbit IgG from a rabbit hybridoma; also called m/h Id3 MoAb 6-1
B5: rabbit monoclonal anti-mouse/human Id3, clone #BCH-4/#42-1 (antibody, V domains shown)
VH: B2 VH
VL: B2 VL with T95S
notes: Rabbit IgG from a rabbit hybridoma; also called m/h Id3 MoAb 42-1

What follows are binders tested against T1, Human Id1: Histidine (human, UniProt P41134 1-155, limits assumed) (assay: ELISA, Ab 0.005 µg/ml).
T1 construct: Fusion protein made in E. coli from vector pGW07; also called h-Id1: his; not shown: His tag
T1 sequence (looked up): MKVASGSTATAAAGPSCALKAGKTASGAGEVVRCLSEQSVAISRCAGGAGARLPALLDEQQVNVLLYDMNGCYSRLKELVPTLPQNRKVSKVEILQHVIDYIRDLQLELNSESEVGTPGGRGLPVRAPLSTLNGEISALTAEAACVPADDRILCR
Procedure: (§1) The rabbit monoclonal anti-human Id3 (clone #3-3) and the rabbit monoclonal anti-mouse/human Id3 (clones #6-1, 16-1, 17-3, and 42-1) produced in Example 6 were tested reactivity against the following antigens: mouse Id1:His, human Id1:His, mouse Id2:His, human Id2:His, mouse Id3:His, human Id3:His, mouse Id4:His, human Id4:His and GST.
(§2) 1. Microtiter wells (prepared in accordance with Example 6) were coated (0.1 μg/well) with mouse Id1:His, human Id1:His, human Id2:His, human Id3:His, and 1.0 μg/well with GST. [0155] 2. Antibody Diluent: 0.25% (w/v) BSA in 0.015M KPO₄ Buffer, 0.85% (w/v) NaCl, 0.1% (w/v) NaN₃, pH=7.40 [0156] 3. Rabbit monoclonal anti-human Id3 (clone #3-3) prepared in Example 7 was diluted to […] with the antibody diluent. […] 4. Rabbit monoclonal anti-mouse/human Id3 (clones #6-1, 16-1, 17-3, 42-1) prepared in Example 7 was diluted to 0.005, 0.010, 0.025, 0.05, 0.10, 0.25, and 0.50 μg/ml with the antibody diluent. […] 5. Conjugate Diluent: 50% (v/v) which consists of an aqueous solution containing Fetal Bovine Serum in 0.05 M Tris, 1% (v/v) Proclin-300, pH 7.6. [0159] 6. Conjugate: Goat anti-rabbit IgG (H+L)-HRP conjugate. [0160] 7. TMB reagent. […] 8. Stop solution (1 N HCI). Method
(§3) 1. Dispense 100 μL of antibody diluent, diluted rabbit monoclonal human Id3, and mouse/human Id3 hybridoma supernatants into appropriate wells. […] 2. Incubate at room temperature with mechanical shaking at 750 rpm for 90 minutes. [0165] 3. Remove the incubation mixture by flicking plate content into an appropriate waste container followed by rinsing the wells 5 times with distilled water. [0166] 4. Strike the wells sharply onto absorbent paper or paper towels to remove all residual water droplets. [0167] 5. Dispense 100 μL of 1:50,000 Goat Anti-Rabbit IgG-HRP Conjugate Reagent into each well. Gently mix for 5 seconds. [0168] 6. Incubate at room temperature with mechanical shaking at 750 rpm for 90 minutes. [0169] 7. Repeat procedures 3 and 4. [0170] 8. Dispense 100 μL of TMB Reagent into each well. Gently mix for 5 seconds. [0171] 9. Incubate at room temperature with mechanical shaking at 750 rpm for 20 minutes. […] 10.
For B1, the A450 was 0.047 A450.
B2 gave an A450 of 0.042 A450.
B3 showed an A450 of 0.044 A450.
B4 was tested, and the A450 was 0.044 A450.
In the case of B5, the A450 is reported as 0.046 A450.

These binders were tested against T2, Mouse Id2: Histidine (mouse, UniProt P41136 1-134, limits assumed) (assay: ELISA, Ab 0.005 µg/ml).
T2 construct: Fusion protein made in E. coli from vector pGW07; also called m-Id2: His; not shown: His tag
T2 sequence (looked up): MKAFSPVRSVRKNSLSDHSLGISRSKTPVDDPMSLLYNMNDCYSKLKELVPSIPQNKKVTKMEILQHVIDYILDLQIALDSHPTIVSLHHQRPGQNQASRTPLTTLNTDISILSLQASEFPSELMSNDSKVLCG
Procedure: as §1, §2, §3
With B1 the A450 was 0.048 A450.
For B2, the A450 was 0.045 A450.
B3 was tested, and the A450 was 0.052 A450.
In the case of B4, the A450 is reported as 0.046 A450.
With B5 the A450 was 0.05 A450.

These binders were tested against T3, Human Id2: Histidine (human, UniProt Q02363 1-134, limits assumed) (assay: ELISA, Ab 0.005 µg/ml).
T3 construct: Fusion protein made in E. coli from vector pGW07; also called h-Id2: His; not shown: His tag
T3 sequence (looked up): T2 sequence (looked up) with T60S, V131A
Procedure: as §1, §2, §3
With B1 the A450 was 0.044 A450.
Work on B2 yielded an A450 of 0.046 A450.
Work on B3 yielded an A450 of 0.045 A450.
B4 gave an A450 of 0.045 A450.
With B5 the A450 was 0.043 A450.

These binders were tested against T4, Mouse Id3: Histidine (mouse, UniProt P41133 1-119) (assay: ELISA, Ab 0.005 µg/ml).
T4 construct: Fusion protein made in E. coli from vector pGW07; also called m-Id3: His; Mouse Id3 (coated wells); not shown: His tag
T4 sequence: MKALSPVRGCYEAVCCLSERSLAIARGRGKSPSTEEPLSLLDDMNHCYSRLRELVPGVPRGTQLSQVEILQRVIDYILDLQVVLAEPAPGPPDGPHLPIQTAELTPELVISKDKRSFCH
Procedure: as §1, §2, §3
Binder B2 has an A450 of 0.24 A450.
With B3 the A450 was 0.39 A450.
Work on B4 yielded an A450 of 0.312 A450.
B5 showed an A450 of 0.437 A450.

Target: T5, Human Id3: Histidine (human, UniProt Q02535 1-119 at identity 1.00))
T5 construct: Fusion protein made in E. coli from vector pGW07; also called h-Id3: His; Human Id3 (coated wells); not shown: His tag
T5 chain: T4 sequence with S31G, S33A, T34A, T105A, K112N
Experiment: ELISA, Ab 0.005 µg/ml
Procedure: as §1, §2, §3
B2 gave an A450 of 0.228 A450.
B3 gave an A450 of 0.33 A450.
With B4 the A450 was 0.275 A450.
B5 showed an A450 of 0.382 A450.

Each binder was assayed against T6, Mouse Id1: Histidine (mouse, UniProt P20067-2 1-148, limits assumed) (assay: ELISA, Ab 0.005 µg/ml).
T6 construct: Fusion protein made in E. coli from vector pGW07; also called m-Id1-His; not shown: His tag
T6 sequence (looked up): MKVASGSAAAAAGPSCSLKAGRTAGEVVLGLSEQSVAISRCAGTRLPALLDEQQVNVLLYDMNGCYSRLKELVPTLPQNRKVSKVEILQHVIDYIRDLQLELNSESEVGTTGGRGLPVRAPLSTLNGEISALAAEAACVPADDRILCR
Procedure: as §1, §2, §3
B1 was tested, and the A450 was 0.044 A450.
With B2 the A450 was 0.046 A450.
For B3, the A450 was 0.048 A450.
Binder B4 has an A450 of 0.047 A450.
B5 gave an A450 of 0.045 A450.

These binders were tested against T4, Mouse Id3: Histidine (assay: ELISA, Ab 0.025 µg/ml).
Procedure: as §1, §2, §3
B2 showed an A450 of 0.953 A450.
With B3 the A450 was 1.4 A450.
For B4, the A450 was 1.13 A450.
In the case of B5, the A450 is reported as 1.58 A450.

What follows are binders tested against T6, Mouse Id1: Histidine (assay: ELISA, Ab 0.025 µg/ml).
Procedure: as §1, §2, §3
B1 was tested, and the A450 was 0.044 A450.
B2 gave an A450 of 0.044 A450.
In the case of B3, the A450 is reported as 0.045 A450.
B4 was tested, and the A450 was 0.046 A450.
In the case of B5, the A450 is reported as 0.045 A450.

What follows are binders tested against T3, Human Id2: Histidine (assay: ELISA, Ab 0.000 µg/ml (blank)).
Procedure: as §1, §2, §3
B1 was tested, and the A450 was 0.043 A450.
With B2 the A450 was 0.049 A450.
B3 showed an A450 of 0.043 A450.
With B4 the A450 was 0.045 A450.
B5 gave an A450 of 0.044 A450.

Each binder was assayed against T4, Mouse Id3: Histidine (assay: ELISA, Ab 0.000 µg/ml (blank)).
Procedure: as §1, §2, §3
For B2, the A450 was 0.044 A450.
Work on B3 yielded an A450 of 0.047 A450.
For B4, the A450 was 0.047 A450.
B5 gave an A450 of 0.047 A450.

Target: T5, Human Id3: Histidine
Experiment: ELISA, Ab 0.000 µg/ml (blank)
Procedure: as §1, §2, §3
B2 showed an A450 of 0.046 A450.
B3 was tested, and the A450 was 0.045 A450.
For B4, the A450 was 0.043 A450.
B5 showed an A450 of 0.044 A450.
